Results on one substance are retold here after paper PMC8748874, “Structures of the human peroxisomal fatty acid transporter ABCD1 in a lipid environment” (Communications Biology, 2022).

For this series, the system named is T1, Nc1ncnc2c1ncn2[C@@H]1O[C@H](COP(=O)(O)OP(=O)(O)OP(=O)(O)O)[C@@H](O)[C@H]1O.
T1 construct: full length, codon-optimized synthetic gene; C-terminal eYFP-Rho1D4 tag cut off with 3C protease; HEK293 Flp-In TREX; homodimer; in DDM/CHS, liposomes or MSP1D1 nanodiscs
Description: molybdate-based colorimetric ATPase assay. The conditions noted are these: BPL/Chol liposomes and nanodiscs, 10 mM MgCl2, pH 7.5, 37 °C, ATP 0.0625 to 8 mM. The class given is biochemical, Homo sapiens.

With ABCD1 (ALDP) (Homo sapiens), the Km entry was “about 0.3 mM”.
